Assay results as given in paper PMC4942575, “Plastid-nucleus communication involves calcium-modulated MAPK signalling”.

Legend:
MBP-ABI4 AAA = MBP-ABI4 AAA (Arabidopsis thaliana, UniProt A0MES8 1-328, T111A;S114A;S130A); experiment: EMSA; poly(dI/dC); 10 ul: 2 ug protein, 200 fmol biotin probe, 1 ul poly(dI/dC), 1x LightShift binding buffer, 5% glycerol; room temperature 20 min; 6% native PAGE; pH and salt not given; settings: protein: recombinant; tags: MBP (pETMALc-H); label: 3' biotin
MBP-ABI4 WT = MBP-ABI4 WT (Arabidopsis thaliana, UniProt A0MES8 1-328); experiment: EMSA; poly(dI/dC); competed by excess unlabelled probe; 10 ul: 2 ug protein, 200 fmol biotin probe, 1 ul poly(dI/dC), 1x LightShift binding buffer, 5% glycerol; room temperature 20 min; 6% native PAGE; pH and salt not given; settings: protein: recombinant; tags: MBP (pETMALc-H); label: 3' biotin
Chain of MBP-ABI4 WT (A0MES8 whole entry): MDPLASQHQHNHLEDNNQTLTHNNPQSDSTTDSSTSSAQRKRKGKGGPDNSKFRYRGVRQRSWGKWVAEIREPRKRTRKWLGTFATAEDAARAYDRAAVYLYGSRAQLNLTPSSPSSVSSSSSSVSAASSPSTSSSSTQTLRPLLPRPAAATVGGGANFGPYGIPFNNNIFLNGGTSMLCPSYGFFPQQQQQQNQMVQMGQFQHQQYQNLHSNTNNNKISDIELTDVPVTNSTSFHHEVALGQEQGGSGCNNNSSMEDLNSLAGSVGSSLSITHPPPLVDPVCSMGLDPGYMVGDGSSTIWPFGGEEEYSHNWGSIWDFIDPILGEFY

Chain of MBP-ABI4 AAA (A0MES8 whole entry T111A/S114A/S130A): as the sequence (A0MES8 whole entry) above, with T111A, S114A, S130A counted along it

B1: LHCB promoter probe (dsDNA)
DNA 1: GACTAGAGACTGCCACATAAGAATAGTAAAGTTA
DNA 2: TAACTTTACTATTCTTATGTGGCAGTCTCTAGTC
Does B1 bind (MBP-ABI4 AAA)?
Result: no binding

Does B1 bind (MBP-ABI4 WT)?
Result: binds
